Molecular target: T1, CD229 hDI/DIII/DIV mDII (human; mouse, UniProt Q9HBG7 48-158; Q01965 159-249; Q9HBG7 251-655, limits assumed)
T1 construct: domain: DI;domain: DII;domain: DIII/DIV; Expressed on transiently transfected COS cells; also called chimeric mouse human molecule where the second Ig domain of Ly9 was substituted the corresponding mouse domain
T1 sequence (looked up): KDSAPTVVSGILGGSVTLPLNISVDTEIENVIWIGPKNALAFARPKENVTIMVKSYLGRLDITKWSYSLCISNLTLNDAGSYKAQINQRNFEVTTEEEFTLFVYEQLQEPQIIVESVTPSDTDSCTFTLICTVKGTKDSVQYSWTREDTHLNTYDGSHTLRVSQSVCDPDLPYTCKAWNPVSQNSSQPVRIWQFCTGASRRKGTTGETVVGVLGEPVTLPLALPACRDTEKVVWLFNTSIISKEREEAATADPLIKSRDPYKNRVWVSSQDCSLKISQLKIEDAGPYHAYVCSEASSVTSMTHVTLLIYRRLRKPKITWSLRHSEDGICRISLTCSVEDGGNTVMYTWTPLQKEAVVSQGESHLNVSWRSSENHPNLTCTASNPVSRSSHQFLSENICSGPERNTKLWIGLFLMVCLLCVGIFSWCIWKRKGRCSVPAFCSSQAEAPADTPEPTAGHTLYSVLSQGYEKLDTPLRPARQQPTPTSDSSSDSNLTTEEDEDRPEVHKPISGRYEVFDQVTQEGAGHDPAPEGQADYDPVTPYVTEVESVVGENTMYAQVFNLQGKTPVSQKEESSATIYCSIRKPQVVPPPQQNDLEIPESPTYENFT
Test: flow cytometry on transiently transfected COS cells
Source text: The mapping to the first or second domain was done as described in Romero et al 2005. Three different human Ly9 constructs were used: full-length human Ly9, a Ly9 isoform that […] and a chimeric mouse human molecule where the second Ig domain of Ly9 was substituted the corresponding mouse domain. The transfected cells were stained with different anti-human antibodies using flow cytometry.
^aCOS cells were transiently transfected with chimeric human (h)/mouse (m) constructs or the isoform lacking the first V-like Ig domain (CD229 ΔDI) described in Materials and Methods. CD229 mAbs were assayed by flow cytometry: +, Detection of protein expression, −, nondetection of protein expression. ^bDomain recognized by the mAb.

B1: HLy9.1.84 (antibody, V domains shown)
VH: QMQLQESGPELVKPGASVKISCKASGYTFTHYYINWVQQRPGQGLEWIGWIFPESGSTYYSEKFKAKATLTVDKSSSTAYMLLSSLTSEDSAVYFCARGTGFFDYWGQGTTLTVSS
VL: QIVLTQSPAIMSASPGEKVTVTCSASSSVSYMFWYQQKPGFSPRLLIYDTSNLASGVPVRFSGSGSGTSYSLTISRMEAEDAATYYCQQWSSYPPTFGGGTKLEIK
notes: also called HLy91.184
binding result: no binding

From patent publication US20260201032A1 (UNIVERSITAT DE BARCELONA, published 2026)
